# According to patent US20110091971A1, “Differentiation of Pluripotent Stem Cells” (priority 2008, published 2011):
# Numbering of substitutions follows the chain as printed.
# B1: R&D Sys Activin A (protein, UniProt P08476 311-426, looked up)
# Inhibin beta A chain: GLECDGKVNICCKKQFFVSFKDIGWNDWIIAPSGYHANYCEGECPSHIAGTSGSSLSFHSTVINHYRMRGHSPFANLKSCCVPTKLRPMSMLYYDDGQNIIKKDIQNMIVEECGCS
# modifications: Inhibin beta A chain activin A homodimer
# B2: ACTN41: activin A variant peptide, SEQ ID 42 (protein)
# chain: GLECDGKVNLCCKKQDFVSFKDIGWNDWIIAPSGYHANSCSGLCPSHIAGTSGSSLSFHSTVINHYRMRGHSPFSDRGACCIPTKLRPMSMLYYDDGQNIIKKDIQNMIVEECGCS
# B3: ACTN44: activin A variant peptide, SEQ ID 45 (protein)
# chain: B2 chain with D16N, S39E, L43K, R77M
# B4: ACTN47: activin A variant peptide, SEQ ID 48 (protein)
# chain: B2 chain with L10Y, D16N, S39E, L43K, R77M, A79S
# B5: ACTN43: activin A variant peptide, SEQ ID 44 (protein)
# chain: B2 chain with L10Y, S39R, S41D, L43K, R77M, I82V
# B6: ACTN39: activin A variant peptide, SEQ ID 40 (protein)
# chain: B2 chain with D16N, S39E, R77M, A79S, I82V
# B7: ACTN38: activin A variant peptide, SEQ ID 39 (protein)
# chain: B2 chain with S39K, S41G, L43K, D76Q, R77L, I82V
# B8: ACTN45: activin A variant peptide, SEQ ID 46 (protein)
# chain: B2 chain with L10T, D16N, S39E, L43K, S75A, D76N, R77M
# B9: ACTN52: activin A variant peptide, SEQ ID 53 (protein)
# chain: GLECDGKVNICCKKQLFGKTKDIGWNDWIIAPSGYHGGSCTGECPSHIAGTSGSSLSFHSTVINHYRMRGHSPNANLKSCCSPTKLRPMSMLYYDDGQNIIKKDIQGMKVEECGCT
# B10: ACTN55: activin A variant peptide, SEQ ID 56 (protein)
# chain: B9 chain with L16S, K19Q, S39G, N74W, K109V
# B11: ACTN53: activin A variant peptide, SEQ ID 54 (protein)
# chain: B9 chain with L16E, K19Q, T20A, S39G, T41S, N74W
# Tested on: H1 or H9 human embryonic stem cells
# Assay: Activin A bioassay: differentiation of human embryonic stem cells to definitive endoderm, cell number and SOX17 intensity by high content analysis (96-well, four days);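 as to Cell Number average: Raw total cell count per well from high content imaging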;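 as to Sox 17 Intensity average: total fluorescence of the cell multiplied by cell area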
# Type: cell-based
# Conditions: 100 ng/ml (the control itself)
# Text: Activin A is an important mediator of differentiation in a broad range of cell types. […] A bioassay that measures this differentiation in human embryonic stem cells was adapted in miniaturized format to 96-well plates for screening purposes. Validation was completed using treatment with commercial sources of activin A and Wnt3a recombinant proteins and measuring protein expression of the transcription factor SOX17, which is considered a representative marker of definitive endoderm.
# Live Cell Assay: Briefly, clusters of H1 or H9 human embryonic stem cells were grown on growth factor-reduced MATRIGEL™ (Invitrogen; Cat #356231)-coated tissue culture plastic. Cells were passaged using collagenase (Invitrogen; Cat # Cat #17104-019) treatment and gentle scraping, washed to remove residual enzyme, and plated in a ratio of 1:1 (surface area) on growth factor-reduced MATRIGEL™-coated 96-well plates (black, 96-well; Packard ViewPlates; Cat #6005182). Cells were allowed to attach as clusters and then recover log phase growth over a 1 to 3 day period, feeding daily with MEF conditioned medium supplemented with 8 ng/ml bFGF (R&D Systems; Cat #233-FB).
# The assay was initiated by washing the wells of each plate twice in PBS and followed by adding an aliquot (100 μl) of test sample in DMEM:F12 basal medium (Invitrogen; Cat #11330-032) to each well. Test conditions were performed in triplicate, feeding […] by aspirating and replacing the medium from each well with test samples over a total four day assay period. On the first and second day of assay, test samples added to the assay wells were diluted in DMEM:F12 with 0.5% FCS (HyClone; Cat #SH30070.03) and 20 ng/ml Wnt3a (R&D Systems; Cat #1324-WN). On the third and fourth day of assay, test samples added to the assay wells were diluted in DMEM:F12 with 2% FCS, without any Wnt3a. Positive control samples consisted of recombinant human activin A (Peprotech; Cat #120-14) added at a concentration of 100 ng/ml throughout assay plus Wnt3a (20 ng/ml) on days 1 and 2. Negative control samples omitted treatment with both activin A and Wnt3a.
# High Content Analysis: At the conclusion of four days of culture, assay plates were washed twice with PBS, fixed with 4% paraformaldehyde at room temperature for 20 minutes, then washed three times with PBS and permeabilized with 0.5% Triton X-100 for 20 minutes at room temperature. Cells were washed again three times with PBS and blocked with 4% chicken serum (Invitrogen; Cat #16110082) in PBS for 30 minutes at room temperature. Primary antibody (goat anti-human SOX17; R&D Systems; cat #AF1924) was diluted 1:100 in 4% chicken serum and added to each well for one hour at room temperature. Alexa Fluor 488 conjugated secondary antibody (chicken anti-goat IgG; Molecular Probes; Cat #) was diluted 1:200 in PBS and added to each sample well after washing three times with PBS. To counterstain nuclei, 4 μg/ml Hoechst 33342 (Invitrogen; Cat #H3570) was added for ten minutes at room temperature. Plates were washed once with PBS and left in 100 μl/well PBS for imaging.
# Imaging was performed using an IN Cell Analyzer 1000 (GE Healthcare) utilizing the 51008bs dichroic for cells stained with Hoechst 33342 and Alexa Fluor 488. Exposure times were optimized from positive control wells and from untreated negative control wells stained with secondary antibody alone. Images from 15 fields per well were acquired to compensate for any cell loss during the bioassay and subsequent staining procedures. Measurements for total cell number and total SOX17 intensity were obtained from each well using IN Cell Developer Toolbox 1.7 (GE Healthcare) software. Segmentation for the nuclei was determined based on grayscale levels (baseline range 100-300) and nuclear size. Averages and standard deviations were calculated for each replicate data set. […]
row,Molecule,Sox 17 Intensity % of control [%]
1,B1,100

# Same assay, conditions: 100 ng/ml (the plate's control itself)
row,Molecule,Sox 17 Intensity % of control [%]
1,B1,100

# Same assay, conditions: supernatant concentration 1x, assay dilution 1:20
Molecule,Cell Number average,Sox 17 Intensity average
B2,6073,1.42E+05
B3,3657,5.01E+04
B4,2624,7.48E+05
B5,657,1.85E+04
B6,1596,5.13E+04
B7,2023,9.26E+04
B8,4591,1.48E+05
B9,3092,1.17E+05
B10,2425,3.41E+05
B11,1610,1.14E+06

# Same assay, conditions: supernatant concentration 1x, assay dilution 1:20; control = R&D Sys Activin A 100 ng/ml on same plate
row,Molecule,Sox 17 Intensity % of control [%]
1,B2,1.5
2,B3,0.5
3,B4,8.0
4,B5,0.2
5,B6,0.5
6,B7,1.0
7,B8,1.6
8,B9,1.3
9,B10,1.2
10,B11,3.8

# Same assay, conditions: supernatant concentration 10x, assay dilution 1:20
Molecule,Cell Number average,Sox 17 Intensity average
B2,1397,1.46E+05
B3,1508,3.24E+05
B4,1399,4.27E+06
B5,877,2.13E+05
B6,3362,1.31E+06
B7,3019,3.89E+05
B8,2058,1.13E+05
B9,4869,2.64E+04
B10,3611,2.67E+05
B11,3229,1.51E+06

# Same assay, conditions: supernatant concentration 10x, assay dilution 1:20; control = R&D Sys Activin A 100 ng/ml on same plate
row,Molecule,Sox 17 Intensity % of control [%]
1,B2,1.6
2,B3,3.5
3,B4,45.7
4,B5,2.3
5,B6,14.0
6,B7,4.2
7,B8,1.2
8,B9,0.3
9,B10,0.9
10,B11,5.1

# Same assay, conditions: supernatant concentration 10x, assay dilution 1:40
Molecule,Cell Number average,Sox 17 Intensity average
B2,2643,6.30E+04
B3,2272,1.58E+05
B4,1610,1.09E+06
B5,1251,5.57E+04
B6,1331,4.81E+05
B7,2520,3.56E+04
B8,4482,2.30E+04
B9,3900,9.50E+04
B10,2761,5.44E+05
B11,3476,9.41E+05

# Same assay, conditions: supernatant concentration 10x, assay dilution 1:40; control = R&D Sys Activin A 100 ng/ml on same plate
row,Molecule,Sox 17 Intensity % of control [%]
1,B2,0.7
2,B3,1.7
3,B4,11.7
4,B5,0.6
5,B6,5.1
6,B7,0.4
7,B8,0.2
8,B9,1.0
9,B10,1.8
10,B11,3.2
